The results in this text go back to patent US20110002926A1 (MEDICAL RESEARCH COUNCIL, published 2011).

Assay [1] deals with HCV E1E2 glycoproteins of genotype 2a JFH1 on HCVpp (Hepatitis C virus genotype 2a, UniProt Q99IB8 384-750; Q99IB8 192-383). Kind of assay: cell-based or functional assay.
The target in assay [2] is HCV E1E2 glycoproteins of genotype 3a F4/2-35 on HCVpp (Hepatitis C virus genotype 3a). Put plainly: cell-based or functional assay.
The target in assay [3] is HCV E1E2 glycoproteins of isolate 2A2.4 on HCVpp (Hepatitis C virus genotype 2). Put plainly: cell-based or functional assay.
Assay [4] concerns the target HCV E1E2 glycoproteins of isolate 4.21.16 on HCVpp (Hepatitis C virus genotype 4). Kind of assay: cell-based or functional assay.
Assay [5] concerns the target HCV E1E2 glycoproteins of isolate 6.5.8 on HCVpp (Hepatitis C virus genotype 6). Put plainly: cell-based or functional assay.
The target of assay [6] is HCV E1E2 glycoproteins of isolate 1A20.8 on HCVpp (Hepatitis C virus genotype 1). Put plainly: cell-based or functional assay.
In assay [7] the target is HCV E1E2 glycoproteins of isolate 1B5.23 on HCVpp (Hepatitis C virus genotype 1). Kind of assay: cell-based or functional assay.
Assay [8] addresses HCV E1E2 glycoproteins of isolate 2B1.1 on HCVpp (Hepatitis C virus genotype 2). Kind of assay: cell-based or functional assay.
In assay [9] the target is HCV E1E2 glycoproteins of isolate 5.15.11 on HCVpp (Hepatitis C virus genotype 5). Kind of assay: cell-based or functional assay.
Assay [10] deals with T1, Peptide D3 (also: C-terminal linker GSGK-biotin, biotin attachment not given here).
T1 peptide: QLINTNGSWHINGSGK
Put plainly: peptide ELISA, signal as percent of maximum H6 binding.

Assay [11] has as its target T2, E2 peptide B1 (not fully specified (residue 16, C-terminus); also: biotin at C-terminal GSGK, site not given here).
T2 peptide: NLINTNGSWHINGSGK
The assay is described as above.

Assay [12] deals with T3, peptide H6 (AP33 mimotope) (not fully specified (residue 16, C-terminus); printed as VELRNLGGTWRPGSGK-biotin; also: biotin at C-terminal GSGK, site not given here).
T3 construct: Mimotope for AP33 identified by phage display; captured on streptavidin plates; also called mimotope H6; H6 mimotope
T3 peptide: VELRNLGGTWRPGSGK
Kind of assay: peptide ELISA, biotinylated peptide on streptavidin, COS7 supernatant, OD 655 nm.

Assay [13] addresses T1, Peptide D3. The assay is described as above.
Assay [14] concerns the target T3, peptide H6 (AP33 mimotope). The assay is described as above.
Assay [15] has as its target T1, Peptide D3. The assay is described as above.
For assay [16], the target named is T3, peptide H6 (AP33 mimotope). The assay is described as above.
Assay [17] concerns the target T2, E2 peptide B1. The description is as above.
For assay [18], the target named is T1, Peptide D3. The assay is described as above.
Assay [19] concerns the target T3, peptide H6 (AP33 mimotope). The description is as above.
The target of assay [20] is T2, E2 peptide B1. The description is as above.
The target in assay [21] is T3, peptide H6 (AP33 mimotope). The assay is described as above.
In assay [22] the target is T2, E2 peptide B1. The assay is described as above.
Assay [23] has as its target T2, E2 peptide B1. The assay is described as above.
Assay [24] addresses T2, E2 peptide B1. The description is as above.
Assay [25] has as its target T1, Peptide D3. The assay is described as above.
For assay [26], the target named is T3, peptide H6 (AP33 mimotope). The assay is described as above.

Read-outs that look alike come from different tables or passages of the source. Where no end group is shown, it is not given here. Some results are limits rather than exact numbers.

Chain of HCV E1E2 glycoproteins of genotype 2a JFH1 on HCVpp (Q99IB8 384-750 limits assumed, chain 1 of 2): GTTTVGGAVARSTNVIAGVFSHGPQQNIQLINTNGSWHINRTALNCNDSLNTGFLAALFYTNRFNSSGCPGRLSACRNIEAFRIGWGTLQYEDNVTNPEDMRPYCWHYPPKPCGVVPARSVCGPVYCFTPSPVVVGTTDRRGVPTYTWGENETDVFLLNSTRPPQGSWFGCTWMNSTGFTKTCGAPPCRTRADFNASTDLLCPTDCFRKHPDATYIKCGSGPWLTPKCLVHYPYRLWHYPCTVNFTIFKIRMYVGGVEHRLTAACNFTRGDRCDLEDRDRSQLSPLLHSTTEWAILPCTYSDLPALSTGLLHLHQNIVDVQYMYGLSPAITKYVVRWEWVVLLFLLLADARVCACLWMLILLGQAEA
Chain of HCV E1E2 glycoproteins of genotype 2a JFH1 on HCVpp (Q99IB8 192-383 limits assumed, chain 2 of 2): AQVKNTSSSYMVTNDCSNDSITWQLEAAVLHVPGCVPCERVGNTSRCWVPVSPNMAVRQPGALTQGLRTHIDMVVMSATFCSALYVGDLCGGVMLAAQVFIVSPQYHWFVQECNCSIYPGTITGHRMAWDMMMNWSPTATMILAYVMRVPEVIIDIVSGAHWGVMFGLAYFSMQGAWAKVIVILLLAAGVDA

B1: chimeric AP33 antibody (Vh/Vl) (antibody, V domains shown)
VH: EVQLQESGPSLVKPSQTLSLTCSVTGDSITSGYWNWIRKFPGNKLEYMGYISYSGSTYYNLSLRSRISITRDTSKNQYYLQLNSVTTEDTATYYCALITTTTYAMDYWGQGTSVTVS
VL: NIVLTQSPVSLAVSLGQRATISCRASESVDGYGNSFLHWFQQKPGQPPKLLIYLASNLNSGVPARFSGSGSRTDFTLTIDPVEADDAATYYCQQNNVDPWTFGGGTKLEIK
notes: also called chimeric antibody
What is called EC50 (read off the curve) is the concentration at which the effect is half-maximal. B1: the “IC50 of HCVpp infection of Huh-7 cells (luciferase)” value is 1.1 µg/mL in [1]; 0.48 µg/mL in assay [2]; 0.88 µg/mL in assay [3]; < 0.137 µg/mL in assay [4]; < 0.137 µg/mL in assay [5]; 1.1 µg/mL in [6]. Also, the “IC50 of HCVpp infection of Huh-7 cells (luciferase)” value in [7] was found to be 1.15 µg/mL; in [8] it was 3 µg/mL; in [9] it was 0.088 µg/mL. Also, the “IC90 of HCVpp infection of Huh-7 cells (luciferase)” value worked out at 9.31 µg/mL in assay [1]; 3.2 µg/mL in assay [2]; 6.67 µg/mL in [3]; 0.83 µg/mL in assay [4]; 3.7 µg/mL in [5]; 11.5 µg/mL in assay [6]. For the same molecule, the “IC90 of HCVpp infection of Huh-7 cells (luciferase)” value in assay [7] was 11 µg/mL; in assay [8] it was > 15 µg/mL; in assay [9], 1.11 µg/mL. The half-maximal effective concentration (EC50 (read off the curve)) with Peptide D3 [10] was ~0.02 µg/mL.

B2: humanized AP33 antibody RHb-h/RK2bc (antibody, V domains shown)
VH: QVQLQESGPGLVKPSETLSLTCTVSGDSITSGYWNWIRQPPGRALEYMGYISYSGSTYYNLSLRSRITISRDTSKNQYSLRLSSVTAADTAMYYCALITTTTYAMDYWGQGTTVTVS
VL: EIVLTQSPSSLSASVGDRVTITCRASESVDGYGNSFLHWFQQKPGKAPKLLIYLASNLNSGVPSRFSGSGSRTDFTLTISSLQPEDFATYYCQQNNVDPWTFGQGTKLEIK
notes: also called RHbcdefgh/RK2bc; RHb-h standard
In the case of B2, the binding result with E2 peptide B1 [11] was “no binding (tested: at least about 500 ng/ml)”. In addition, the “EC50 (read off the curve)” value in [12] was ~0.04 µg/mL; with Peptide D3 [13], ~0.05 µg/mL; in assay [14], ~0.04 µg/mL.

B3: humanized AP33 antibody RH-C/RK2bc (antibody, V domains shown)
VH: QVQLQESGPGLVKPSETLSLTCTVSGDSITSGYWNWIRQPPGRALEWMGYISYSGSTYYNLSLRSRITISRDTSKNQYSLRLSSVTAADTAMYYCALITTTTYAMDYWGQGTTVTVSS
VL: EIVLTQSPSSLSASVGDRVTITCRASESVDGYGNSFLHWFQQKPGKAPKLLIYLASNLNSGVPSRFSGSGSRTDFTLTISSLQPEDFATYYCQQNNVDPWTFGQGTKLEIK
notes: also called RH-C (peptide ELISA, paired with RK2bc)
Turning to B3, the “EC50 (read off the curve)” value with Peptide D3 [15] is ~0.05 µg/mL; in [16], ~0.04 µg/mL. The binding result in the assay with E2 peptide B1 [17] was “no binding (tested: about 2000 ng/ml)”.

B4: AP33 RH-D/RK2bc (antibody, V domains shown)
VH: QVQLQESGPGLVKPSETLSLTCTVSGDSITSGYWNWIRQPPGRALEYIGYISYSGSTYYNLSLRSRITISRDTSKNQYSLRLSSVTAADTAMYYCALITTTTYAMDYWGQGTTVTVS
VL: EIVLTQSPSSLSASVGDRVTITCRASESVDGYGNSFLHWFQQKPGKAPKLLIYLASNLNSGVPSRFSGSGSRTDFTLTISSLQPEDFATYYCQQNNVDPWTFGQGTKLEIK
B4: the “EC50 (read off the curve)” value (with Peptide D3 [18]; in assay [19]) was ~0.04 µg/mL throughout. Moreover, in the assay with E2 peptide B1 [20], the binding result is “no binding (tested: about 900 ng/ml)”.

B5: humanized AP33 antibody RH-G/RK2bc (antibody, V domains shown)
VH: QVQLQESGPGLVKPSETLSLTCTVSGDSITSGYWNWIRQPPGRALEYMGYISYSGSTYYNLSLRSRITISRDTSKNQFSLRLSSVTAADTAMYYCALITTTTYAMDYWGQGTTVTVS
VL: EIVLTQSPSSLSASVGDRVTITCRASESVDGYGNSFLHWFQQKPGKAPKLLIYLASNLNSGVPSRFSGSGSRTDFTLTISSLQPEDFATYYCQQNNVDPWTFGQGTKLEIK
B5: in assay [21], the “EC50 (read off the curve)” value is ~0.03 µg/mL. Besides, the binding result with E2 peptide B1 [22] is “no binding (tested: about 700 ng/ml)”.

B6: humanized AP33 antibody RH-F/RK2bc (antibody, V domains shown)
VH: QVQLQESGPGLVKPSETLSLTCTVSGDSITSGYWNWIRQPPGRALEYMGYISYSGSTYYNLSLRSRITISVDTSKNQYSLRLSSVTAADTAMYYCALITTTTYAMDYWGQGTTVTVS
VL: EIVLTQSPSSLSASVGDRVTITCRASESVDGYGNSFLHWFQQKPGKAPKLLIYLASNLNSGVPSRFSGSGSRTDFTLTISSLQPEDFATYYCQQNNVDPWTFGQGTKLEIK
As for B6, in the assay with E2 peptide B1 [23], the binding result was “no binding (tested: about 500 ng/ml)”.

B7: AP33 RH-E/RK2bc (antibody, V domains shown)
VH: QVQLQESGPGLVKPSETLSLTCTVSGDSITSGYWNWIRQPPGRALEYMGYISYSGSTYYNLSLRSRVTISRDTSKNQYSLRLSSVTAADTAMYYCALITTTTYAMDYWGQGTTVTVS
VL: EIVLTQSPSSLSASVGDRVTITCRASESVDGYGNSFLHWFQQKPGKAPKLLIYLASNLNSGVPSRFSGSGSRTDFTLTISSLQPEDFATYYCQQNNVDPWTFGQGTKLEIK
On to B7, for which the binding result with E2 peptide B1 [24] was “no binding (tested: about 800 ng/ml)”.

B8: humanized AP33 antibody RH-H/RK2bc (antibody, V domains shown)
VH: QVQLQESGPGLVKPSETLSLTCTVSGDSITSGYWNWIRQPPGRALEYMGYISYSGSTYYNLSLRSRITISRDTSKNQYSLRLSSVTAADTAMYYCARITTTTYAMDYWGQGTTVTVS
VL: EIVLTQSPSSLSASVGDRVTITCRASESVDGYGNSFLHWFQQKPGKAPKLLIYLASNLNSGVPSRFSGSGSRTDFTLTISSLQPEDFATYYCQQNNVDPWTFGQGTKLEIK
notes: also called RH-H (peptide ELISA, paired with RK2bc)
Consider B8, for which the binding result with E2 peptide B1 [11] is “no binding (tested: at least about 500 ng/ml)”. For the same molecule, the entries for the “EC50 (read off the curve)” value (with Peptide D3 [25]; in assay [26]) were ~0.04 µg/mL and ~0.03 µg/mL, respectively.
